# Results published in the DeepSol protein solubility set.
# Assay: soluble on expression in E. coli; label from the status in PepcDB or PDB records
row,Sequence,soluble on expression in E. coli
1,GPGSMSEPHVPTAAAQQPSAEATANAALTADSTVHTSPQAPPPPAASGASTVSANVAEVKSVTATLSDVADSTEPLLVGKVVSSEIAQARSQPCTSDLNTAQSGAGAPVDANVGEQDRCSPPAKSTSSSSSSHSGEESSDEAADFETKELMFAFGRYVGQVNPQTGLRHGHGCQYYNNGNVYTGEWRDGAPDGFGEKRYRNGDVYRGNWRQGKRSGRGVYLFVQGDTYEGMYADDKPEGQGTYATLKGDRYTGQWKAGQRHGTGRETLANGQVFVGNWRYGKKQGRGKLYLPGSEKCIYGIWNNDRFFRELTANEMGADGAEDVVDELGTQRRPSALSVALPGAKAPPPSASLADRVRMGVTALENRMESLGKALERVITGGDGDESAHVPRAAAMGAASSTAGDVAVSEECTEPPAQGFVVNSHQANDEDGEQG,soluble
2,KPEPTNSSVEVSPDIYQQVRDELKRASVSQAVFARVAFNRTQGLLSEILRKEEDPRTASQSLLVNLRAMQNFLNLPEVERDRIYQDER,soluble
3,DQQLVDQLSQLKLNVKMLDNRAGENGVDCAALGADWASCNRVLFTLSNDGQAIDGKDWVIYFHSPRQTLRVDNDQFKIAHLTGDLYKLEPTAKFSGFPAGKAVEIPVVAEYWQLFRNDFLPRWYATSGDAKPKMLANTDTENLDQFVAPFTGDQWKRTKDDKNILMTPASRFVSNADLQTLPAGALRGKIVPTPMQVKVHAQDADLRKGVALDLSTLVKPAADVVSQRFALLGVPVQTNGYPIKTDIQPGKFKGAMAVSGAYELKIGKKEAQVIGFDQAGVFYGLQSILSLVPSDGSGKIATLDASDAPRFPYRGIFLDVARNFHKKDAVLRLLDQMAAYKLNKFHFHLSDDEGWRIEIPGLPELTEVGGQRCHDLSETTCLLPQYGQGPDVYGGFFSRQDYIDIIKYAQARQIEVIPEIDMPAHARAAVVSMEARYKKLHAAGKEQEANEFRLVDQTDTSNTTSVQFFNRQSYLNPCLDSSQRFVDKVIGEIAQMHKEAGQPIKTWHFGGDDAKNIRLGAGYTDKAKPEPGKGIIDQSNEDKPWAKSQVCQTMIKEGKVADMEHLPSYFGQEVSKLVKAHGIDRMQAWQDGLKDAESSKAFATSRVGVNFWDTLYWGGFDSVNDWANKGYEVVVSNPDYVYMDFPYEVNPDERGYYWGTRFSDERKVFSFAPDNMPQNAETSVDRDGNHFNAKSDKPWPGAYGLSAQLWSETQRTDPQMEYMIFPRALSVAERSWHRAGWEQDYRAGREYKGGETHFVDTQALEKDWLRFANILGQRELAKLDKGGVAYRLPVPGARVAGGKLEANIALPGLGIEYSTDGGKQWQRYDAKAKPAVSGEVQVRSVSPDGKRYSRAEKV,soluble
4,MSLSEKVTIYDIAEKLNITAATVSRALNNNPKIKESTRELVIKTAASMNYKQNKLALALKSGRSNNIGVIVPRIDSNFFASVIRGIEEELQPHGYQVIICQTHESKQRENENLYTLIDAQVDGILMSVTDVTSENDDAFNNVLQKNVPLIFFDRSKHIDGVSSVTINDFRGGYLTTKHLINEGCRYIAHFSGDQSLEIFKNRFLGYKQALLDHGIEFKEEYVIPVKSMVDAGKEAVDKLLQLETPPDAIFSSSDFAALGAIQELKERNISIPNEFCVAGFSNEPFTKFMELSITSVDQSPLEMGKMAARVFLEQVDKTDTIKIEKKVVLAPELHIRKSSSRTNFEGHHHHHH,soluble
5,MFKRTKLILIATILLSGCSTTNNESNNETKSVPEEMEASKYVGQGFQPPAEKDAVEFAKKHKDKIAKRGEQFFMDNFGLKVKATNVVGSGDGVEVFVHCDDHDIVFNASIPFDKSIIDSDSSLRSEDKGDDMSTLVGTVLSGFEYRAQKEKYDNLYKFFKENEKKYQYTGFTKEAINKTQNSGYENEYFYIVANIPTLQEYRKYYEPLIKKNNLNFKKGMKQARKGVGYKAAIEVHTTLFSRSSNFSKDKKLDDVIDLSESTKKLHLNFENTKIFLQLAKSTISTNRVNYSDNESIRIEVELEHHHHHH,soluble
6,MKDVVEYLVRYLVDRPEAVRVQVRRGKEGTVYLVEVAPEDKGRLIGKGGRVIESLRTVVRAYAKRKVGVEVR,soluble
7,MLESVHQASAYTADVQPADVVIVGAGAAGLAAAHHLTRAGLTTAVLEAAPNVGGRMSTEKVDGFRLDRMGQLLSTAYPELRSTPGLDALPLREFSPGVLVHSDGHLHRVGEPGTPRSARGALTAARALASAPRQQRTPRAPRTQGASRPGLLGSPVGQSRLAGALARLAATPPDRLLSRPELPAARALSALGLPPRTIDGFLRPLLAALLCDPALETSSRCADLALRAFVTGRLCVPEGGADVLPELLAATLPPGTVHTGVRVTAVSTTSVTTKDHGELRCRAVLLATGARAAARLLPGLRVPGFHPVTVLHHTTDEPPLGDPALVLDAERGGPVAHTAVISRVDPSRAPAGRALVSSTVLGTPPPPDRLEAAVRAQLARLYRTSTARWELLAIHHDSEAVPAMPPPHDPRRPVRLLAGLYICGDHRDTSTVQGALRSGRRAAHALLTDVGAGQTSLEEPLETAALEHHHHHH,not soluble
8,LSYHVIGPLRELTSTARRLGRGELDARVTYSGEDELAQLGERFNQMAGELKSIYGDLEERVEDKTRALSQSHQRLELLYASARRLGENPYDSRTLQPLLNQLEKVLDAGRVTLCLNKDGVERAYSSLTTTERPADFCLQGDCGSCREQASACDQPSSLAQPLLMQPLSIAGHRFGELFIESRSGRLENWQQQLIETFCDNIARTFALSLQQEQESRLALFAERGTIARELHDSLAQSLSYLKIQVSRLGTLLKREAPAEKIEDTLDELREGLNGAYRQLRELLTTFRLSLDEPSLEAALGNAVAEFGERGEVTIELDNRLQHVPLSPNEEIHVLQIVREALSNVVRHSQAQRAWVRLSSQADGQVSIAVEDDGVGFDPQQNRSGHYGLTIMQERGQTLGSQLRFEARAPHGTRVLFSFVPTALQP,not soluble
9,SLVSAQRAIIDPEGKVLINKVNFIDGGLKAPDEVVRKMVRMGTNIIGEPVCGLYPARLIALTSGYSARIPYTIDLDFWMQLLRLGKLWMIDEPLCAFRISNLSWSSRIGEMRHKQFLAFMEEVAADELFQINDLDLFIGRFNSAVQSMTSLMGFKLFAGSAAEKRVIAVQ,not soluble
10,MSSIGTGYDLAASTFSPDGRIFQVEYAQKAVDNAGTMIAIRGKNGVVVVADKLISSKLYTDNANPRMFNVNDNVGVAVAGNYPDGFALKNYAYGEAMKWLKDYREPMPIQNIANSVAEYIHIHTLGISRPFGAGAFFMSWNKQTGGRLFLVEPSGLNYEYKAWAVGKHRQAAKAEIEKLKIEELDVNQLVKEAARIIMVVRDENKDKNVQIEMGWVGEQTNGKYEEVPSEVVTAAEEWAIAKLDEDDMDD,not soluble
11,MPRDNSSSSRRRRGSKRCPTGMSSNKTSRSTSSSSVTSSSGHGASSFSEDSSVRSVTNSVRSTRSAGSIMSMASAEASVVAPDLTIYHGDRKQSYQLADKGKMVVINRKNGVIVYMLRCVDGRRVYIEKSSEGASLILTNQRGKVIKALAGHY,not soluble
12,MPEPDKQATRKKRTTSSLTDSTVFDPAKQVLWSRPGYLVRRLNQIHYALFYEECKTQNVTPVQYGVLTALSLSPWLDQTAIGMELGLDRTTTADVIKRLQERGLVERRVNPNDKRSRQAVITQEGLRIMGLLQGGMARAQQRLLEPLSPRNREIFMKLLSTLVDANNQYSRTALKAM,not soluble
13,MTAWHRLPAAARALFGAKGGCTGSQRSYDDVLRVMYELTLRVVNPTYRNRTLANTSGKSAELVGLLVERLNMRRCLDTLRFVHVAGTKGKGTTASYTAALLEAYGLKVGLFTSPHVKDVRERIMVNNEVLPMDTFVHYFFQVVDCFVELAGADKEVTWDLPAPCSFFCLMFLVSLVAFAGESVDVAVVEVGIGGSRDPTNIIIPEASVITALGIDHTEILGDTVEEIALQKAGIMKPGVVCYAAPQGDHPSTRRVLKDYAEGVDSPLVFADDVAVPTDGWPCLSIGGEHAVENSRLALLAARSVMGIPLTQPLDDVERHVLQRTTVMGRSQVLPVGDGSKGTFYLDGAHTYESLRCATRWFVKESTKRTCDSKPRRVLLMYSSRQPERIVEAFRPFVDSFSKAVFVCALDPKGMREIWKNNSDAYTQDKATGLIRCWKTLCGAVPCFSRAAPFVSVEEVVEVVSAASSDDEDTSKPVQVFVTGSFFLVSDIVNLYDSQGS,not soluble
14,ATRRRSLSCYVWIATFGMRYTHEFNKVIRDYVRGHASQIRKRLLPKALEVFASHRIAGDCVVVATGAPPELVREILALVADQQEVVPVIGSSIVPRLGAIIVARHCHHEEKMRMLREQGYGDVAVAYSDSTADLPLLMAAKVPVVVNPKPKREKLFRRVLQP,not soluble
15,WRKKRKDAKNNEVSFSQIKPKKSKLIRVENFEAYFKKQQADSNCGFAEEYEDLKLIGISLPKYAAEIAENRGKNRYNNVLPYDISRVKLSVQTHSTDDYINANYMPGYHSKKDFIATQGPLPNTLKDFWRMVWEKNVYAIVMLTKCVEQGRTKCEEYWPSKQAQDYGDITVAMTSEVVLPEWTIRDFVVKNMQSSESHPLRQFHFTSWPDHGVPDTTDLLINFRYLVRDYMKQIPPESPILVHCSAGVGRTGTFIAIDRLIYQIENENTVDVYGIVYDLRMHRPLMVQTEDQYVFLNQCVLDIIRAQKDSKVDLIYQNTTAMTIYENLERVSMFGKANGYIA,soluble
16,MGSDKIHHHHHHYKKKFSGEILCAALWGVNLLIGTDSGLMLLDRSGQGKVYPLISRRRFDQMTVLEGQNILATISGRKRRIRVYYLSWLRQKILRTEGAGSANTTEKRNGWVNVGDLQGAIHFKIVRYERIKFLVVGLESSIEIYAWAPKPYHKFMSFKSFGSLSHVPLIVDLTVEDNARLKVLYGSTGGFHAIDLDSAAVYDIYTPAQSGQTTTPHCIVVLPNSNGMQLLLCYDNEGVYVNTYGRMTKNVVLQWGEMPSSVAYISTGQIMGWGNKAIEIRSVDTGHLDGVFMHKKAQKLKFLCERNDKVFFSSAKGGGSCQIYFMTLNKPGLTNW,not soluble
17,MSKHTLIRRAVLEKLESVTGAPVTLFDGLPAFVEQEDLPAIAVWLTDAQYTGLMTDEDDWQATLHTAVFLRAQAPDTELDIWMEEKIFPALEEVSGLERLIDTMTPLGYDYQRDSEMATWGMAEITYRITYTN,soluble
18,MSLSLFDMFKVGIGPSSSHTVGPMKAGKQFVDDLVEKGLLDNVTRVAVDVYGSLSLTGKGHHTDIAIIMGLAGNEPATVDIDSIPGFIRDVETRERLLLAQGRHEVDFPKDDGMRFHNGNLPLHENGMQIHAWHDDTVIYSKTYYSIGGGFIVDEEHFGQEATNEVTVPYPFKSAKEMLEYCNSTGLSLSGMVMQNELALHSKKEIEEYFGHVWQTMQACIDRGMNTEGVLPGPLRVPRRASALRRMLVSSDKLSSDPMNVIDWVNMFALAVNEENAAGGRVVTAPTNGACGIVPAVLAYYDHFIESVSPDIYTRYFLAAGAIGALYKMNASISGAEVGCQGEVGVACSMAAAGLAELLGASPEQVCVAAEIGMEHNLGLTCDPVAGQVQVPCIERNAIASVKAINAARMAMRRTSAPRVSLDKVIETMYETGKDMNAKYRETSRGGLAIKVQCDEGHHHHHH,soluble
19,MSTINQKLSDNFREAWQKQNLEVNLEEVIEKWELTKYVKDNFICPEVNISTLPSYSFVLKFMFKLKKPYISLDENDFYIIDNPLRKDKVLNLPFVAPSSWKGSLRNSLWQLNYDYENDKIRRIFGNERSPNSEDIVLRMGRLYFFPTFFSKKSLEIINPHNRESRVGTVPILMESVPQDTTGYFTLIYVPFDLIGCEENEIKKQVACDIQLISKGLKSMFTYYGFGAKTSSGYGTSYEDITDGTITLRVKGIEVSLKDIDEVKPPAEGYSKYLNEDGSVKEEFKGSGKYGLLSDKEYYKIKNQLEGSRNEYRDFRQWYGLNGEKWQKHLNSFKYPKPEWPTWNFGNFFQLIEVSKNIATSLELSGAHNECMAGDPLEHHHHHH,not soluble
